According to patent publication US20210054054A1 (ROCKEFELLER UNIVERSITY, published 2021):

Experiments:
[1] = target: T1, human CD4 receptor (human, UniProt P01730 26-396); test: competition ELISA on CD4, competitor HRP-labeled wild type ibalizumab; fold reduced binding vs wt at pH 5.0 over that at pH 7.4
T1 construct: also called human CD4 protein

[2] = target: T1, human CD4 receptor; test: competition ELISA on CD4, competitor HRP-labeled wild type ibalizumab, pH 7.4

| Binder | pH 5.0/pH 7.4 differential [1] | fold reduced CD4 binding vs wt at pH 7.4 [2] [fold] | further results |
| --- | --- | --- | --- |
| ibalizumab LC S56H variant (antibody, human IgG1, kappa, V domains shown) VH: QVQLQQSGPEVVKPGASVKMSCKASGYTFTSYVIHWVRQKPGQGLDWIGYINPYNDGTDYDEKFKGKATLTSDTSTSTAYMELSSLRSEDTAVYYCAREKDNYATGAWFAYWGQGTLVTVSS VL: DIVMTQSPDSLAVSLGERVTMNCKSSQSLLYSTNQKNYLAWYQQKPGQSPKLLIYWASTREHGVPDRFSGSGSGTDFTLTISSVQAEDVAVYYCQQYYSYRTFGGGTKLEIKR | 0.8 |  | fold vs wt affinity at pH 7.4 [2]: 1.3 fold |
| ibalizumab light chain S93/Y94 double histidine mutant (antibody, human IgG1, kappa, V domains shown, also called combination of S93 and Y94; S93/Y94 double mutant) VH: QVQLQQSGPEVVKPGASVKMSCKASGYTFTSYVIHWVRQKPGQGLDWIGYINPYNDGTDYDEKFKGKATLTSDTSTSTAYMELSSLRSEDTAVYYCAREKDNYATGAWFAYWGQGTLVTVSS VL: DIVMTQSPDSLAVSLGERVTMNCKSSQSLLYSTNQKNYLAWYQQKPGQSPKLLIYWASTRESGVPDRFSGSGSGTDFTLTISSVQAEDVAVYYCQQYYHHRTFGGGTKLEIKR | 3 |  |  |
| ibalizumab variant with a histidine mutation at residue Y92 in the light chain (antibody, human IgG1, kappa, V domains shown, also called Y92H) VH: QVQLQQSGPEVVKPGASVKMSCKASGYTFTSYVIHWVRQKPGQGLDWIGYINPYNDGTDYDEKFKGKATLTSDTSTSTAYMELSSLRSEDTAVYYCAREKDNYATGAWFAYWGQGTLVTVSS VL: DIVMTQSPDSLAVSLGERVTMNCKSSQSLLYSTNQKNYLAWYQQKPGQSPKLLIYWASTRESGVPDRFSGSGSGTDFTLTISSVQAEDVAVYYCQQYHSYRTFGGGTKLEIKR |  | < 3 | fold loss of affinity vs wt at pH 7.4 [2]: > 2.6 fold |
| ibalizumab variant with a histidine mutation at residue Y94 in the light chain (antibody, human IgG1, kappa, V domains shown, also called Y94H; LC Y94) VH: QVQLQQSGPEVVKPGASVKMSCKASGYTFTSYVIHWVRQKPGQGLDWIGYINPYNDGTDYDEKFKGKATLTSDTSTSTAYMELSSLRSEDTAVYYCAREKDNYATGAWFAYWGQGTLVTVSS VL: DIVMTQSPDSLAVSLGERVTMNCKSSQSLLYSTNQKNYLAWYQQKPGQSPKLLIYWASTRESGVPDRFSGSGSGTDFTLTISSVQAEDVAVYYCQQYYSHRTFGGGTKLEIKR |  | < 3 |  |
| ibalizumab variant with a histidine mutation at residue S93 in the light chain (antibody, human IgG1, kappa, V domains shown, also called S93H) VH: QVQLQQSGPEVVKPGASVKMSCKASGYTFTSYVIHWVRQKPGQGLDWIGYINPYNDGTDYDEKFKGKATLTSDTSTSTAYMELSSLRSEDTAVYYCAREKDNYATGAWFAYWGQGTLVTVSS VL: DIVMTQSPDSLAVSLGERVTMNCKSSQSLLYSTNQKNYLAWYQQKPGQSPKLLIYWASTRESGVPDRFSGSGSGTDFTLTISSVQAEDVAVYYCQQYYHYRTFGGGTKLEIKR |  | < 3 |  |
| ibalizumab light chain triple Y92H/S93H/Y94H variant (antibody, human IgG1, kappa, V domains shown) VH: QVQLQQSGPEVVKPGASVKMSCKASGYTFTSYVIHWVRQKPGQGLDWIGYINPYNDGTDYDEKFKGKATLTSDTSTSTAYMELSSLRSEDTAVYYCAREKDNYATGAWFAYWGQGTLVTVSS VL: DIVMTQSPDSLAVSLGERVTMNCKSSQSLLYSTNQKNYLAWYQQKPGQSPKLLIYWASTRESGVPDRFSGSGSGTDFTLTISSVQAEDVAVYYCQQYHHHRTFGGGTKLEIKR | 3.4 |  |  |
